The values below come from article PMC7093204 (Nature, 2020).

Sequences and labels used below:
B2: Rsc8 (natural protein)
chain: MSDTEKDKDVPMVDSHEATEEPPTTSTNTPSFPHLAQEQAKEESATLGAEVAHKKINYEQEAQKLEEKALRFLAKQTHPVIIPSFASWFDISKIHEIEKRSNPDFFNDSSRFKTPKAYKDTRNFIINTYRLSPYEYLTITAVRRNVAMDVASIVKIHAFLEKWGLINYQIDPRTKPSLIGPSFTGHFQVVLDTPQGLKPFLPENVIKQEVEGGDGAEPQVKKEFPVNLTIKKNVYDSAQDFNALQDESRNSRQIHKVYICHTCGNESINVRYHNLRARDTNLCSRCFQEGHFGANFQSSDFIRLENNGNSVKKNWSDQEMLLLLEGIEMYEDQWEKIADHVGGHKRVEDCIEKFLSLPIEDNYIREVVGSTLNGKGGDSRDGSVSGSKLMECVNDAVQTLLQGDDKLGKVSDKSREISEKYIEESQAIIQELVKLTMEKLESKFTKLCDLETQLEMEKLKYVKESEKMLNDRLSLSKQILDLNKSLEELNVSKKLVLISEQVDSGIQLVEKDQEGDDEDGNTATGHGVKRVGKEGEEVGEGDSIAKLQPQVYKPWSL

The data set “Rsc8” deals with B2. Nature of the data set: cryo-EM structure.
The data set “cryo-EM structure” concerns the molecule itself. Nature of the data set: cryo-EM structure.

B1: Sfh1 (natural protein)
chain: MSHQNQLIPQAYISNFHNRLTNEDDGIPIFTMAQQTRQHKRAKVVNYAEYDNDLFDEFNMNGSNFNNADTHYKDNAVSHENTPALTNGVTMDGSEYNVLENMNGADSIISNNKYDAGSNMVVESLSGLNSNNNASNGPSNKAQAQDIGNAVLPDLQDQHHNPFNILRYPKIRDTFINGKVVSPYRLNTDQETKANANSGEAIMIPITLDIEHMGHTIKDQFLWNYNDDSISPEEFASIYCKDLDMTSATLQTQIANIIKEQLKDLENIAATEIMSDLHVIINLTCNLQDRFFEDNFQWNLNDKSLTPERFATSIVQDLGLTREFIPLISQSLHETILKIKKDWVDGHLIQDHVPNDAAFGYLSGIRLDIDELGSNWCPRVEILTKEEIQKREIEKERNLRRLKRETDRLSRRGRRRLDDLETTMRM
As to B1, the binding result with Rsc8 was “binds”. Consider B2, for which, in “cryo-EM structure”, the binding result is “binds”.

B3: Rsc6 (natural protein)
chain: MVTQTNPVPVTYPTDAYIPTYLPDDKVSNLADLKKLIEMDSRLDLYLTRRRLDTSINLPTNTKTKDHPPNKEMLRIYVYNTTESSPRSDSGTPADSGKTTWTLRIEGKLLHESANGKHPFSEFLEGVAVDFKRLKPLGMGKKRKRDSSLSLPLNLQQPEYNDQDSTMGDNDNGEDEDSAEAESREEIVDALEWNYDENNVVEFDGIDIKRQGKDNLRCSITIQLRGVDGGKVQYSPNLATLIGMQTGSVNDAVYSIYKYILINNLFVTEQTEAQDGSNDAEDSSNENNNKNGAGDDDGVEGSTPKDKPELGEVKLDSLLQKVLDTNAAHLPLMNVVQTVNKLVSPLPPIILDYTIDLSKDTTYGATTLDVDVSHILHQPQPQPNLQKEEETDAEDTAKLREITKLALQLNSSAQKYQFFHELSLHPRETLTHYLWSSKQNELVLQGDQYFNEDAARTSDIYSNNNNDRSLMGNISLLYSQGRL
B3: the binding result in the data set with Rsc8 is reported as “binds”.
